Laboratory results as given in patent US20210145976A1 (ARO BIOTHERAPEUTICS, published 2021).
Positions count from the first letter of the chain named.

B1: SEQ ID NO 222 (designed binder)
chain: MLPAPKNLVVSRVTEDSARLSWTAPDAAFDSFYIEYFEWTGSGEAIVLTVPGSERSYDLTGLKPGTEYNVAIYGVKGGAVSYPLSAIFTT
notes: FN3 domain
B2: SEQ ID NO 85 (designed binder)
chain: MLPAPKNLVVSRVTEDSARLSWTAPDAAFDSFFIWYWEKSVDGEAIVLTVPGSERSYDLTGLKPGTEYNVGIQGVKGGTPSDPLSAIFTT
notes: FN3 domain
B3: SEQ ID NO 112 (designed binder)
chain: B2 chain with W35A, W37F, K39F, S40A, V41N, D42P, N69K, G71V, D82E, F88S
notes: FN3 domain
B4: SEQ ID NO 168 (designed binder)
chain: B2 chain with A24T, W35G, W37L, K39P, S40Y, V41P, D42P, N69V, G71S, T79K
notes: FN3 domain
B5: SEQ ID NO 197 (designed binder)
chain: MLPAPKNLVVSRVTEDSARLSWTAPDAAFDSFKIDYLEINDNGEAIVLTVPGSERSYDLTGLKPGTEYPVYIWGVKGGYPSSPLSAIFTT
notes: FN3 domain
B6: SEQ ID NO 152 (designed binder)
chain: B2 chain with W35G, W37L, K39P, S40Q, V41P, D42P, G71T, T79F, D82S
notes: FN3 domain
B7: SEQ ID NO 146 (designed binder)
chain: MLPAPKNLVVSRVTEDSARLSWTAPDAAFDSFYIAYAEPRPDGEAIVLTVPGSERSYDLTGLKPGTEYSVLIHGVKGGLLSSPLSAIFTT
notes: FN3 domain
B8: SEQ ID NO 237 (designed binder)
chain: MLPAPKNLVVSRVTEDSARLSWTAPDAAFDSFTILYGEMGTTGEAIVLTVPGSERSYDLTGLKPGTEYDVFIEGVKGGELSWPLSAIFTT
notes: FN3 domain
B9: SEQ ID NO 212 (designed binder)
chain: B7 chain with Y33I, A35E, A37W, P39Q, R40I, P41G, D42V, S69W, L71G, H73Y
notes: FN3 domain
B10: SEQ ID NO 136 (designed binder)
chain: MLPAPKNLVVSRVTEDSARLSWTAPDAAFDSFFIYYIESYPAGEAIVLTVPGSERSYDLTGLKPGTEYWMGIDGVKGGRWSTPLSAIFTT
notes: FN3 domain
B11: SEQ ID NO 174 (designed binder)
chain: B2 chain with W35G, W37L, K39P, S40Q, V41P, D42P, N69K, G71V, D82E
notes: FN3 domain
B12: SEQ ID NO 303 (designed binder)
chain: B2 chain with W35A, W37F, K39F, S40A, V41N, D42P, N69K, G71V, D82E
notes: FN3 domain
B13: SEQ ID NO 164 (designed binder)
chain: B7 chain with Y33L, A35P, P39T, R40S, D42S, L79H, S82D
notes: FN3 domain
B14: SEQ ID NO 278 (designed binder)
chain: B7 chain with Y33P, L79H, S82D
notes: FN3 domain
B15: SEQ ID NO 233 (designed binder)
chain: B7 chain with A35V, R40I, D42N, L79R, L80N, S82D
notes: FN3 domain
B16: SEQ ID NO 307 (designed binder)
chain: MLPAPKNLVVSRVTEDSARLSWTAPDAAFDSFPITYSEPAHYGEAIVLTVPGSERSYDLTGLKPGTEYHVGIMGVKGGVFSSPLSAIFTT
notes: FN3 domain
B17: SEQ ID NO 214 (designed binder)
chain: MLPAPKNLVVSRVTEDSARLSWTAPDAAFDSFAIPYGERQELGEAIVLTVPGSERSYDLTGLKPGTEYFVVIQGVKGGQPSYPLSAIFTT
notes: FN3 domain
B18: SEQ ID NO 257 (designed binder)
chain: B7 chain with Y33H, A35V, A37H, D42S, S69E, L71G, H73V, G74S, L79D, S82V
notes: FN3 domain
B19: SEQ ID NO 149 (designed binder)
chain: B7 chain with Y33I, A35P, P39V, L79K, S82E
notes: FN3 domain
B20: SEQ ID NO 296 (designed binder)
chain: B2 chain with W35G, W37L, K39P, S40Q, V41P, D42P, V47I, G71T, T79F, D82M
notes: FN3 domain
B21: SEQ ID NO 115 (designed binder)
chain: MLPAPKNLVVSRVTEDSARLSWTAPDAAFDSFFIGYLEPQPPGEAIVLTVPGSERSYDLTGLKPGTEYNVTIQGVKGGFPSMPLSAIFTTT
notes: FN3 domain
B22: SEQ ID NO 252 (designed binder)
chain: MLPAPKNLVVSRVTEDSARLSWTAPDAAFDSFDIGYTEYGGYGEAIVLTVPGSERSYDLTGLKPGTEYWVLIQGVKGGGSSVPLSAIFTT
notes: FN3 domain
B23: SEQ ID NO 95 (designed binder)
chain: MLPAPKNLVVSRVTEDSARLSWTAPDAAFDSFRISYYEWYDLGEAIVLTVPGSERSYDLTGLKPGTEYWVDIAGVKGGYYSYPLSAIFTT
notes: FN3 domain
B24: SEQ ID NO 261 (designed binder)
chain: B8 chain with L35V, M39W, T41V, T42P, F71W, E79D, F88V
notes: FN3 domain
B25: SEQ ID NO 217 (designed binder)
chain: MLPAPKNLVVSRVTEDSARLSWTAPDAAFDSFIIEYWEWYFAGEAIVLTVPGSERSYDLTGLKPGTEYTVWITGVKGGTWSEPLSAIFTT
notes: FN3 domain
B26: SEQ ID NO 284 (designed binder)
chain: B2 chain with W35G, W37L, K39P, S40Q, V41P, D42P, G71T, T79F, D82M
B27: SEQ ID NO 96 (designed binder)
chain: B2 chain with W35G, W37L, K39P, S40Q, V41P, D42P, G71T, T79F, D82M

Molecular target: T1, recombinant biotinylated CD71 extracellular domain (Sino Biologics) with an N-terminal 6His tag (human, UniProt P02786 89-760, biotinylated (sites not given))
T1 construct: extracellular domain; also called hCD71; huCD71
T1 sequence (P02786 other isoform, or with tags, fused parts or gaps): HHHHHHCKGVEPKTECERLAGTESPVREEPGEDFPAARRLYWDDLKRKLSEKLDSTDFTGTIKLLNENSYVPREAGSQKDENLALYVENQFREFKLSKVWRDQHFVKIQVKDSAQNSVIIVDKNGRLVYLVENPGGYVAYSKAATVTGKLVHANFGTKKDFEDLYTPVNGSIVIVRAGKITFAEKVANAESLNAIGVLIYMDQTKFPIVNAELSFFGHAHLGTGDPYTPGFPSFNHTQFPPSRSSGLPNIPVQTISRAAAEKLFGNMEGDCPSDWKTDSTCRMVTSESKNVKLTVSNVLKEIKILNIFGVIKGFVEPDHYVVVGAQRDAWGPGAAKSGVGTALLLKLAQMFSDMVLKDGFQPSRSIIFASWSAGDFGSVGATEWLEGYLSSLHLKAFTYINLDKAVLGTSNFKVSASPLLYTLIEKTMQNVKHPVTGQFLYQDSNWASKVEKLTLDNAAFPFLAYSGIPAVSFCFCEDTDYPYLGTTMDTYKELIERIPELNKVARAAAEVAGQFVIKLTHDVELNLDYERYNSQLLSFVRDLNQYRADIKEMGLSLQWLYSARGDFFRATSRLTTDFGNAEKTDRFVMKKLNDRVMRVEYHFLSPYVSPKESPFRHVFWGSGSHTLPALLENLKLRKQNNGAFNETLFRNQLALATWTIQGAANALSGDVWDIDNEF
Experiment: screening ELISA

| hCD71 | Binder |
| --- | --- |
| 1.74e+06 | B1 |
| 2.91e+06 | B2 |
| 3.65e+06 | B3 |
| 2.9e+06 | B4 |
| 4.57e+06 | B5 |
| 2.83e+06 | B6 |
| 3.07e+06 | B7 |
| 4.15e+06 | B8 |
| 2.49e+06 | B9 |
| 4.03e+06 | B10 |
| 2.42e+06 | B11 |
| 3.51e+06 | B12 |
| 2.6e+06 | B13 |
| 3.69e+06 | B14 |
| 3.41e+06 | B15 |
| 2.19e+06 | B16 |
| 2.14e+06 | B17 |
| 2.37e+06 | B18 |
| 2.77e+06 | B19 |
| 2.7e+06 | B20 |
| 2.92e+06 | B21 |
| 2.98e+06 | B22 |
| 4.21e+06 | B23 |
| 4.23e+06 | B24 |
| 3.9e+06 | B25 |

Molecular target: T1, recombinant biotinylated CD71 …
Experiment: screening ELISA, ratio

| hCD71:HSA | Binder |
| --- | --- |
| 441 | B1 |
| 1160 | B2 |
| 514 | B3 |
| 1480 | B4 |
| 242 | B5 |
| 534 | B6 |
| 809 | B7 |
| 2240 | B8 |
| 1110 | B9 |
| 706 | B10 |
| 1100 | B11 |
| 1330 | B12 |
| 2370 | B13 |
| 568 | B14 |
| 1310 | B15 |
| 503 | B16 |
| 974 | B17 |
| 601 | B18 |
| 826 | B19 |
| 844 | B20 |
| 846 | B21 |
| 1190 | B22 |
| 2210 | B23 |
| 763 | B24 |
| 332 | B25 |

Molecular target: CD71 on SK-BR-3 cells (human, UniProt P02786 1-760)
Sequence (P02786 whole entry): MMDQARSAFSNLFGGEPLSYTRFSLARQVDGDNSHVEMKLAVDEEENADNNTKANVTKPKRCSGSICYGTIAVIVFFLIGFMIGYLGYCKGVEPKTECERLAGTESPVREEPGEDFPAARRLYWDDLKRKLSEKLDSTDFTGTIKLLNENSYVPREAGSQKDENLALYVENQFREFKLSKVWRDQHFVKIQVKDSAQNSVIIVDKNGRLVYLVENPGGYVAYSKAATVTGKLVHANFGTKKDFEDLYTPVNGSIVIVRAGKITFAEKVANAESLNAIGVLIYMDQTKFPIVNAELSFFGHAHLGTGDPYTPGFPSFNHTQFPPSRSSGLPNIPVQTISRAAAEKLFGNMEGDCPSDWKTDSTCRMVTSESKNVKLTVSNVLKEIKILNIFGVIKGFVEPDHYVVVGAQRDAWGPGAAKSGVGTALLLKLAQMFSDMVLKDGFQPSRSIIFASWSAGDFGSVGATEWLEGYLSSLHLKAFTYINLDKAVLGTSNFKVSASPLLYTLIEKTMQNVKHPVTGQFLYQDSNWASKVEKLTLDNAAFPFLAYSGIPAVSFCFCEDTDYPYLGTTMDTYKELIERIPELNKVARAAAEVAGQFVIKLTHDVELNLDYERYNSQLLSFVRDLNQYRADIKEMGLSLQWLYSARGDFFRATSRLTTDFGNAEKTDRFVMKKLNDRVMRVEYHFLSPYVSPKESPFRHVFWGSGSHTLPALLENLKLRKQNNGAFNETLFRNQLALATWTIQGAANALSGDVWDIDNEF
Experiment: cell-based or functional assay

| Binder | IC50, SKBR-3 viability, MMAF conjugate, second unlabelled column (+/- human transferrin) [nM] | IC50, SKBR-3 viability, MMAF conjugate, first unlabelled column (+/- human transferrin) [nM] |
| --- | --- | --- |
| B1 | 28.2 |  |
| B2 | 89 |  |
| B3 | 4.55 | 27.3 |
| B26 | 32 | 98 |
| B4 | 7.2 | 32 |
| B5 | 0.468 |  |
| B6 | 5.24 | 19.6 |
| B7 | 3.46 | 7.13 |
| B8 | 3.76 | 28.1 |
| B9 | 6.69 |  |
| B10 | 0.503 | 2.32 |
| B11 | 158 |  |
| B12 | 39 | 33 |
| B13 | 55.8 | 18.7 |
| B14 | 3.7 | 13.2 |
| B27 | 27 | 79.5 |
| B15 | 17.7 | 54.6 |
| B16 | 30.8 | 47.9 |
| B17 | 29.2 | 28.1 |
| B18 | 6.5 | 22 |
| B19 | 5.5 | 9.7 |
| B20 | 18.6 | 29.3 |
| B21 | 10.4 | 24.2 |
| B22 | 7.74 | 24.6 |
| B23 | 12.7 | 28.3 |
| B24 | 31.2 | 1.24 |
| B25 | 2.46 | 15.8 |
